# B1: soluble α-DG (receptor)
# chain: HWPSEPSEAVRDWENQLEASMHSVLSDLHEALPTVVGIPDGTAVVGRSFRVTIPTDLIGSSGEVIKVSTAGKEVLPSWLHWDPQSHTLEGLPLDTDKGVHYISVSAAQLDANGSHIPQTSSVFSIEVYPEDHSEPQSVRAASPDLGEAAASACAAEEPVTVLTVILDADLTKMTPKQRIDLLHRMQSFSEVELHNMKLVPVVNNRLFDMSAFMAGPGNAKKVVENGALLSWKLGCSLNQNSVPDIRGVEAPAREGTMSAQLGYPVVGWHIANKKPPLPKRIRRQIHATPTPVTAIGPPTTAIQEPPSRIVPTPTSPAIAPPTETMAPPVRDPVPGKPTVTTRTRGAIIQTPTLGPIQPTRVSDAGTVVSGQIRATVTIPGYVEPTAVATPPTTTTKKPRVSTPKPATPSTDSSATTTRRPTKKPRTPRPVPRVTTKAPITRLETASPPTRIRTTTSGVPRGGEPNQRPELKNHIDRVDAWVGTYFEVKIPSDTFYDKEDTTTDKLKLTLKLREQQLVGEKSWVQFNSNSQLMYGLPDSSHVGKHEYFMHATDKGGLSAVDAFEIHVHKRPQGDKAPARFKAKFVGDPAPVVNDIHKKIALVKKLAFAFGDRNCSTVTLQNITRG
# Legend:
# [1] = target: purified α-dystroglycan (α-DG) (UniProt Q28685); assay: far-Western, overlay or dot blot
# [2] = target: low affinity viral binders; assay: competitive inhibition binding assay
# [3] = target: high affinity virus binders; assay: competitive inhibition binding assay
Molecule,logs higher affinity than WE c2.2 [1],concentration of soluble α-DG needed to block virus binding to α-DG cells [2],concentration of soluble α-DG for 33% blocking of virus binding to α-DG cells [3]
LCMV WE c54 (purified virus; viral glycoprotein GP1/GP2) (complex),3 logs,,
B1,,> 400 nM,1 to 4 nM

# — publication PMC2193355
